From PMC8891188 (Clinical Pharmacokinetics, 2021)
Like-named read-outs stand apart in the source and are kept apart here.

Legend:
[1] = cited from earlier work
[2] = simulation of the previous study by Rüppel et al.; cited from earlier work
[3] = 10 U SC; Howey et al.; cited from earlier work
[4] = Serum insulin pharmacokinetics during euglycemic clamp; type: in vivo, human
[5] = test system: persons with type 1 diabetes mellitus; assay: Euglycemic clamp pharmacodynamics; type: in vivo, human
[6] = across doses, TI inhaled, LIS SC
[7] = mean (SD) of n = 5 PK profiles selected for comparable AUClast, SD

Substance	Time to maximum concentration (Cmax) of insulin ([1]; IV, after the start of administration) [min]	Time to maximum concentration (Cmax) of insulin ([1]; SC, after administration) [min]	ED50, Emax model of predicted GIR AUC vs D [2] [U]	MRT [3] [h]	Insulin exposure estimated from the linear regression equations ([4]; 10-U dose of LIS SC, regression equations in the ESM) [min µU/mL]	Geometric mean dose-normalized insulin exposure (AUClast/D) across doses [4, 6] [min·µU/mL/U]	Estimated MRT at the same insulin exposure ([4]; insulin exposure of 8152 min µU/mL, regression equations) [h]	AUClast of profiles at the high end of the common exposure range [4, 7]	AUClast of profiles at the low end of the common exposure range [4, 7]	Geometric mean dose-normalized effect, GIR AUC/D [5, 6] [mg/kg/U]	γ, model of GIRmax vs Cmax (common value) ([5]; common to TI and LIS, estimate (standard error), SEM)	Total effect (GIR AUC) at comparable low insulin exposure ([5]; n = 5 profiles per treatment, AUClast about 6537 min∙µU/mL) [mg/kg]	Exponent of dose dependence of tGIRend (tGIRend ~ D^x) ([5]; power-law fit, log-transformed variables)
RHI: regular human insulin, given intravenously or subcutaneously in cited studies	5	121	48	3.92	–	–	–	–	–	–	–	–	–
[Lys(B28), Pro(B29)]-human insulin [LIS]	–	–	–	1.68	8152	883	1.97	61,371 (9082) min∙µU/mL	6538 (65) min∙µU/mL	66.2	1.37 (0.19)	899	~0.282
